# Experimental data: US10736970B2, “Polypeptide complex of titin-telethonin beta-pleated sheet structure as polypeptide drug carrier, method of using the polypeptide complex, and fusion protein complex thereof” (TIANJIN INSTITUTE OF INDUSTRIAL BIOTECHNOLOGY, CHINESE …, priority 2015, dated 2020)
# B1: GLRecom: Single fusion protein: GLP-1(8G)-Z1Z2, Telethonin beta-pleated sheet region and second Z1Z2 connected via linkers (SEQ ID NO: 20), 60.0 kDa (protein)
# chain: MKHHHHHHPMSDYDIPTTENLYFQHGEGTFTSDVSSYLEGQAAKEFIAWLVKGRGGGGGSGGGGSGGGGSAMATQAPTFTQPLQSVVVLEGSTATFEAHISGFPVPEVSWFRDGQVISTSTLPGVQISFSDGRAKLTIPAVTKANSGRYSLKATNGSGQATSTAELLVKAETAPPNFVQRLQSMTVRQGSQVRLQVRVTGIPTPVVKFYRDGAEIQSSLDFQISQEGDLYSLLIAEAYPEDSGTYSVNATNSVGRATSTAELLVQGSGSGSAPGTPGGGGSGGGGSGGGGSMATSELSSEVSEENSERREAFWAEWKDLTLSTRPEEGSSLHEEDTQRHETYHQQGQSQVLVQRSPWLMMRMGILGRGLQEYQLPYQRVLPGASGPAGSPTGSGPGSAGSGPGSAGMATQAPTFTQPLQSVVVLEGSTATFEAHISGFPVPEVSWFRDGQVISTSTLPGVQISFSDGRAKLTIPAVTKANSGRYSLKATNGSGQATSTAELLVKAETAPPNFVQRLQSMTVRQGSQVRLQVRVTGIPTPVVKFYRDGAEIQSSLDFQISQEGDLYSLLIAEAYPEDSGTYSVNATNSVGRATSTAELLVQG
# Assays:
# SD rats [1] = experiment: Oral glucose tolerance test (OGTT) in rats, blood glucose; type: in vivo, rat; conditions: single i.p. 25 nmol/kg
# Method: (§1) The rats in the first three groups were given 25 nmol/kg by intraperitoneal injection, the rats in the PBS group were given the same volume of PBS, and the blood glucose was measured by a blood glucose meter. After 30 min, 2 g glucose/kg body weight was given by oral gavage, which was assumed to occur at 0 min, and then the blood glucose level was measured respectively at 10, 30, 60, 90, and 120 min. The area under curve (AUC) was calculated using Graphpad Prism 6.0 software. During the process, blood was taken from the tail vein respectively at 0, 10, and 30 min, added to a centrifuge tube containing EDTA-Na2, and centrifuged at 4000 rpm for 10 min. The supernatant was collected, and the insulin content was measured by using the Rat/Mouse Insulin Elisa kit (Millipore).
# SD rats of about 250 g were randomized into 4 groups (n=5), including a 1 nmol/kg group, a 5 nmol/kg group, a 25 nmol/kg group, and a PBS group.
# The animals were allowed to free access to food for 12 h, and then fasted for 12 h. Then, OGTT was carried out. […]
# The blood glucose level was measured by a blood glucose meter, and this was assumed to occur at −30 min. […] Then, the blood glucose was measured respectively at 10, 30, 60, 90, and 120 min. The area under curve (AUC) was calculated using Graphpad Prism 6.0 software.
# SD rats [2] = experiment: Insulin content in rat plasma during OGTT; type: in vivo; conditions: single i.p. 25 nmol/kg
# Method: as §1
# In the OGTT test of each group, blood was taken from the tail vein of rats at a time ranging from 10 to 30 min, and added dropwise to an Ep tube containing EDTA-Na2. The plasma was removed, and the insulin content was determined by using the Insulin Elisa kit (Millipore).
# (§2) During the process, blood was taken from the tail vein at a time ranging from 10 to 30 min, added to a centrifuge tube containing EDTA-Na2, and centrifuged at 4000 rpm for 10 min. The supernatant was collected, and the insulin content was measured by using the Rat/Mouse Insulin Elisa kit (Millipore).
# [3] = literature / background value; cited from earlier work
# C57BL/6 mice [4] = experiment: Insulin content during OGTT in C57BL/6 mice; type: in vivo, mouse; conditions: i.p. 10 nmol/kg
# Method: as §2
# C57BL/6 mice [5] = experiment: OGTT in C57BL/6 mice, blood glucose; type: in vivo, mouse; conditions: i.p. 10 nmol/kg
# Method: C57BL/6 mice of about 25 g were randomized into 3 groups (n=5), including a PBS group, a Z1Z2/GLTe-G group, and a GLRecom group. The animals in the Z1Z2/GLTe-G group and the GLRecom group were given the Z1Z2/GLTe-G and GLRecom respectively by intraperitoneal injection at a dosage of 10 nmol/kg body weight, and the animals in the PBS group were given the same volume of PBS. The blood glucose level was measured by a blood glucose meter, and this was assumed to occur at −30 min. After 30 min, 2 g glucose/kg body weight was given by oral gavage, and this was assumed to occur at 0 min. Then, the blood glucose was measured respectively at 10, 30, 60, 90, and 120 min. The AUC was calculated by using the Graphpad Prism 6.0 software.
# [6] = rat, in vivo
# Method: Blood was sampled from the tail respectively at 0, 0.5, 1, 1.5, 2, 4, 6, and 10 h, and dripped into an Ep tube pretreated with EDTA-Na2. A DPP-4 inhibitor was immediately added (in 30 s) after the blood was sampled.
# Then, blood was taken respectively at 1, 2, 4, 8, and 24 h, and added dropwise to an Ep tube pretreated with EDTA-Na2.
# (§3) 1 nmol GLZ/TeN was administered to the SD rats (about 250 g) by intravenous (i.v) injection at the tail and by subcutaneous injection (s.c), and this was assumed to occur at 0 h. Blood was sampled from the tail vein of the rats respectively at 0.05, 0.5, 2, 4, 8, 11, 24, and 48 h, and dripped into an Ep tube pretreated with EDTA-Na2. The protease inhibitor protinin was immediately added (in 30 s) after the blood was sampled.
# as §3, with “2.8” for “1”, “GLRecom” for “GLZ/TeN”, “tail,” for “tail and by subcutaneous injection (s.c),”, “5, 10,” for “4, 8, 11,”, “a centrifugation” for “an Ep”
molecule,measurement,setting,value
"CC[C@H](C)[C@H](NC(=O)[C@H](Cc1ccccc1)NC(=O)[C@H](CCC(=O)O)NC(=O)[C@H](CCCCN)NC(=O)[C@H](C)NC(=O)[C@H](C)NC(=O)[C@H](CCC(N)=O)NC(=O)CNC(=O)[C@H](CCC(=O)O)NC(=O)[C@H](CC(C)C)NC(=O)[C@H](Cc1ccc(O)cc1)NC(=O)[C@H](CO)NC(=O)[C@H](CO)NC(=O)[C@@H](NC(=O)[C@H](CC(=O)O)NC(=O)[C@H](CO)NC(=O)[C@@H](NC(=O)[C@H](Cc1ccccc1)NC(=O)[C@@H](NC(=O)CNC(=O)[C@H](CCC(=O)O)NC(=O)[C@H](C)NC(=O)[C@@H](N)Cc1c[nH]cn1)[C@@H](C)O)[C@@H](C)O)C(C)C)C(=O)N[C@@H](C)C(=O)N[C@@H](Cc1c[nH]c2ccccc12)C(=O)N[C@@H](CC(C)C)C(=O)N[C@H](C(=O)N[C@@H](CCCCN)C(=O)NCC(=O)N[C@@H](CCCNC(=N)N)C(=O)NCC(=O)O)C(C)C [GLP-1, Glucagon-like peptide 1, reference compound]",period of time of effective blood glucose control in OGTT,SD rats [1],30 min
same,effect on blood glucose level in OGTT,SD rats [1]; 2 g glucose/kg oral after 30 min,significantly reduce the blood glucose level
same,blood insulin content during OGTT,SD rats [2],significantly increase the blood insulin content
Peptide Tyrosin-tyrosin [PYY],in-vivo half-life period of native peptide,[3],8 min
B1,level of insulin secretion,C57BL/6 mice [4],significantly enhance the level of insulin secretion
same,AUC of blood glucose in OGTT,C57BL/6 mice [5],significantly reduced
same,blood glucose reducing effect in OGTT,C57BL/6 mice [5]; 2 g/kg glucose,significant blood glucose reducing effect
same,blood glucose level at 120 min in OGTT,C57BL/6 mice [5]; 120 min,still significantly reduced
same,half-life period after intravenous injection,[6],13.4 ± 0.8 h
same,half-life period relative to Z1Z2/GLTe-G complex (4 h),[6]; iv,more than 3 times
